The target of the assay is T1, PG I蛋白(fitzgerald，30R-AP038) (UniProt P0DJD8 16-388).
T1 construct: Bought antigen; Pepsinogen I is a group of isozymogens (human genes PGA3, PGA4, PGA5); also called 胃蛋白酶原I; HPG I
The assay can be described thus: BLI, antibody captured on AMC sensor, PG I protein in a dilution series in PBST. (Biolayer interferometry detects binding as a change in optical thickness at a sensor tip.)

T1 sequence (P0DJD8 16-388): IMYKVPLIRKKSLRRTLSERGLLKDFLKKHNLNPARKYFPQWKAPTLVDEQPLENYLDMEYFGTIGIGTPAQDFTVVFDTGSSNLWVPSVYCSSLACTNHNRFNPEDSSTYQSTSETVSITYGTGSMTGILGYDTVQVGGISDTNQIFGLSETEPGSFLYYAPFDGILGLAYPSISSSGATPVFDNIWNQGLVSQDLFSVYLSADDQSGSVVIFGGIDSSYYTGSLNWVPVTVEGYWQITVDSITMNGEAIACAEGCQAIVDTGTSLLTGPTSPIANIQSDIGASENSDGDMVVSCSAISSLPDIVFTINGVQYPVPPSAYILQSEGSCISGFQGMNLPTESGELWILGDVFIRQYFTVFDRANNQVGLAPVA

On to 对照抗体 (antibody), for which the Kd (commonly the constant that tells how readily two partners part at equilibrium) was found to be 0.271 nM, the off-rate (koff) (usually the first-order rate constant of dissociation) came to 0.000529 s⁻¹ and the on-rate (kon) (usually the rate constant with which the complex forms) is 1.95e+06 M⁻¹ s⁻¹.

B1: Anti-HPG I 13A5单克隆抗体 (antibody, V domains shown)
VH: QVQLQQSGPELVRPGVSVKISCKGSGYTFTDHPMHWVKQSHAKSLEWIGVISTFSGHRNYNQKFKGKATMTVDKSSTTAYMELDRLTSEDSAIYYCARGDKSIYYGSYLSWGQGTLITVSA
VL: QIVLTQSPAIMSASPGEKVTMTCSASSSVSYMYWYQQKSGTSPKRWIYDTSKLTSGVPARFSGSGSGTSYSLTISSMETEDAATYFCQQWSSSPLTFGAGTKLELK
With B1, the dissociation constant (Kd) was determined as 0.0275 nM, the koff was 0.000536 s⁻¹ and the kon was 1.95e+07 M⁻¹ s⁻¹.
